{
  "source": "paper doi:10.1101/302828",
  "about": "(bioRxiv, 2018)",
  "proteins": {"B1": {"name": "recombinant murine chromogranin B (CHGB) (natural protein, mouse, UniProt P16014 21-677, looked up)", "chain": "APVDNRDHNEEMVTRCIIEVLSNALSKSSVPTITPECRQVLKKSGKEVKGEEKGENQNSKFEVRLLRDPADASGTRWASSREDAGAPVEDSQGQTKVGNEKWTEGGGHSREGVDDQESLRPSNQQASKEAKIYHSEERVGKEREKEEGKIYPMGEHREDAGEEKKHIEDSGEKPNTFSNKRSEASAKKKDESVARADAHSMELEEKTHSREQSSQESGEETRRQEKPQELTDQDQSQEESQEGEEGEEGEEGEEGEEDSASEVTKRRPRHHHGRSGSNKSSYEGHPLSEERRPSPKESKEADVATVRLGEKRSHHLAHYRASEEEPEYGEESRSYRGLQYRGRGSEEDRAPRPRSEESQEREYKRNHPDSELESTANRHGEETEEERSYEGANGRQHRGRGREPGAHSALDTREEKRLLDEGHYPVRESPIDTAKRYPQSKWQEQEKNYLNYGEEGDQGRWWQQEEQLGPEESREEVRFPDRQYEPYPITEKRKRLGALFNPYFDPLQWKNSDFEKRGNPDDSFLEDEGEDRNGVTLTEKNSFPEYNYDWWERRPFSEDVNWGYEKRSFARAPQLDLKRQYDGVAELDQLLHYRKKADEFPDFYDSEEQMGPHQEANDEKARADQRVLTAEEKKELENLAAMDLELQKIAEKFSQRG"}},
  "target": "the molecule itself",
  "assay": "SEC",
  "data": [
    {"protein": "B1", "values": [
      {"measurement": "stoichiometry N", "result": 2}
    ]}
  ]
}
